Data on two molecules can be found in publication PMC7318607.

The target in the data set is GST-OGG1 wt (UniProt O15527 1-345). As to the kind of experiment: EMSA. For orientation: Mobility shift assays separate free from complexed probe on a gel.
Sequence of GST-OGG1 wt (O15527 whole entry): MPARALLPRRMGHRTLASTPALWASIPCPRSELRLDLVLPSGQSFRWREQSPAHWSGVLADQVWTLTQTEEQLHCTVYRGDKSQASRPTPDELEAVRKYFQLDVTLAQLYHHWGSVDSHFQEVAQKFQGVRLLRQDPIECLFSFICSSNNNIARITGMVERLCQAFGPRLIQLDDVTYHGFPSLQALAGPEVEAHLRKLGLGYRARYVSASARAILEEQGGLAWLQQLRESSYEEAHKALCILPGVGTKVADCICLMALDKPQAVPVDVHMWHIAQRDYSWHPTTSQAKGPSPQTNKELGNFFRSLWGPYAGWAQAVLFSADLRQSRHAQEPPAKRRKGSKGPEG

B1: G2 probe (8-oxoG) (dsDNA)
DNA 1: CGATGTCTGGAAAAGCCCGGGGACCAGGGAA
DNA 2: TTCCCTGGTCCCCGGGCTTTTCCAGACATCG
modifications: 8-oxoG at position 27 of strand 1 (antisense)
Turning to B1, the binding result was “binds”.

B2: Cy5 probe (8-oxoG) (dsDNA)
DNA 1: AGAGAAGAAGAAGAAGAGATGGGTTATTCGAACTAGC
DNA 2: GCTAGTTCGAATAACCCATCTCTTCTTCTTCTTCTCT
modifications: 8-oxoG at position 16 of strand 1
Turning to B2, the binding result is “binds”.
